No end group written: not given here.
T1: Mint1^WT C-terminal construct, amino acids 453-839 (rat, UniProt O35430 453-839)
T1 sequence (looked up): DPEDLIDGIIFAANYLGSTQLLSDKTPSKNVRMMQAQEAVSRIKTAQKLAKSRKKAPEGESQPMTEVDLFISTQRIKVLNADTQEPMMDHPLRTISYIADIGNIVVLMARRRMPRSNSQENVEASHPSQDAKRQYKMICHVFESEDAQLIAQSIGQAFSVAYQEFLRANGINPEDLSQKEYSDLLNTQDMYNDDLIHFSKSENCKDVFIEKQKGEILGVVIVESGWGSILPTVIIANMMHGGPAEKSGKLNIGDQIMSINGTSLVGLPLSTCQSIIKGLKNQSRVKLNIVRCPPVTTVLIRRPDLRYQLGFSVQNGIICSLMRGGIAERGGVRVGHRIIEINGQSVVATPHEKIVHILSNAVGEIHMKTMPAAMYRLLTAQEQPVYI

T2: Mint1^Y633A C-terminal construct, amino acids 453-839 (rat, UniProt O35430 453-839, Y633A)
T2 sequence (looked up): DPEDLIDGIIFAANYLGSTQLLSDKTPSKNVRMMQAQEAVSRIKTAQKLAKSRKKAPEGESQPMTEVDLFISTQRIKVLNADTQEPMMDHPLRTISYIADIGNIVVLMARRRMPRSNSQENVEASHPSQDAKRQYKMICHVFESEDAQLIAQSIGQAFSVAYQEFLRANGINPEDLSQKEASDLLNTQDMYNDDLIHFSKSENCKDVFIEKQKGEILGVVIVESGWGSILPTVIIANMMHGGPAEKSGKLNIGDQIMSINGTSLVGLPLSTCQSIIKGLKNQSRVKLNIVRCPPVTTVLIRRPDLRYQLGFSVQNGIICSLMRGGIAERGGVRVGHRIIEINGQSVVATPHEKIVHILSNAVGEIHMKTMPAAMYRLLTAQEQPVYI

T3: Mint1^Y549A/F610A C-terminal construct, amino acids 453-839 (rat, UniProt O35430 453-839, Y549A | F610A)
T3 sequence (looked up): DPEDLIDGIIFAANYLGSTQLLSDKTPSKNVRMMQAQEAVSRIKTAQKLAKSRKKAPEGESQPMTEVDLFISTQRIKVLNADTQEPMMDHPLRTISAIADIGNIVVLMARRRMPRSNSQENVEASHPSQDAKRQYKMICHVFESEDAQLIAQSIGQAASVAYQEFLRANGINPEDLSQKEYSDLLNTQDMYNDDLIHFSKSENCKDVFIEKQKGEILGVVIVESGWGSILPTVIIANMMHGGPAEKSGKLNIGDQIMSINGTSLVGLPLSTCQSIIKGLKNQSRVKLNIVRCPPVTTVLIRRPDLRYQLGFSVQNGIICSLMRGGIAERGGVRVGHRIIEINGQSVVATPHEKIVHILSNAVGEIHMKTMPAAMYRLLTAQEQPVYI


Tests used:
Test in all cases: fluorescence polarisation
[1] = target: T1, Mint1^WT C-terminal construct, amino …
[2] = target: T2, Mint1^Y633A C-terminal construct, amino …
[3] = target: T3, Mint1^Y549A/F610A C-terminal construct, …
TAMRA-PS1-10mer = target: TAMRA-PS1-10mer

Row | Kd [1] [µM] | Kd [2] [µM] | Kd [3] [µM] | Kd (TAMRA-PS1-10mer) [µM] | Binder
1 | 282 ± 8.3 | 14.5 ± 0.74 | 382 ± 12.5 | – | {TAMRA}-NNGQNGYENPTYKFFEQMQN [TAMRA-APP17-mer]
2 | 619 ± 57.9 | – | 1460 ± 25.2 | – | {TAMRA}-NNGLSSGGRARHSYHHPDQDHWC [TAMRA-VGCC2.2-20mer]
3 | – | – | – | 139 | Mint1^Y633A C-terminal construct, amino acids 453-839 (domain or fragment) DPEDLIDGIIFAANYLGSTQLLSDKTPSKNVRMMQAQEAVSRIKTAQKLAKSRKKAPEGESQPMTEVDLFISTQRIKVLNADTQEPMMDHPLRTISYIADIGNIVVLMARRRMPRSNSQENVEASHPSQDAKRQYKMICHVFESEDAQLIAQSIGQAFSVAYQEFLRANGINPEDLSQKEASDLLNTQDMYNDDLIHFSKSENCKDVFIEKQKGEILGVVIVESGWGSILPTVIIANMMHGGPAEKSGKLNIGDQIMSINGTSLVGLPLSTCQSIIKGLKNQSRVKLNIVRCPPVTTVLIRRPDLRYQLGFSVQNGIICSLMRGGIAERGGVRVGHRIIEINGQSVVATPHEKIVHILSNAVGEIHMKTMPAAMYRLLTAQEQPVYI

The next lines start with the binder.

Row | Binder | Kd [1] [µM] | Kd [2] [µM] | Kd [3] [µM] | Kd (TAMRA-PS1-10mer) [µM]
4 | Mint1^Y549A/F610A C-terminal construct, amino acids 453-839 (domain or fragment) DPEDLIDGIIFAANYLGSTQLLSDKTPSKNVRMMQAQEAVSRIKTAQKLAKSRKKAPEGESQPMTEVDLFISTQRIKVLNADTQEPMMDHPLRTISAIADIGNIVVLMARRRMPRSNSQENVEASHPSQDAKRQYKMICHVFESEDAQLIAQSIGQAASVAYQEFLRANGINPEDLSQKEYSDLLNTQDMYNDDLIHFSKSENCKDVFIEKQKGEILGVVIVESGWGSILPTVIIANMMHGGPAEKSGKLNIGDQIMSINGTSLVGLPLSTCQSIIKGLKNQSRVKLNIVRCPPVTTVLIRRPDLRYQLGFSVQNGIICSLMRGGIAERGGVRVGHRIIEINGQSVVATPHEKIVHILSNAVGEIHMKTMPAAMYRLLTAQEQPVYI | – | – | – | 301
5 | Mint1^WT C-terminal construct, amino acids 453-839 (domain or fragment) DPEDLIDGIIFAANYLGSTQLLSDKTPSKNVRMMQAQEAVSRIKTAQKLAKSRKKAPEGESQPMTEVDLFISTQRIKVLNADTQEPMMDHPLRTISYIADIGNIVVLMARRRMPRSNSQENVEASHPSQDAKRQYKMICHVFESEDAQLIAQSIGQAFSVAYQEFLRANGINPEDLSQKEYSDLLNTQDMYNDDLIHFSKSENCKDVFIEKQKGEILGVVIVESGWGSILPTVIIANMMHGGPAEKSGKLNIGDQIMSINGTSLVGLPLSTCQSIIKGLKNQSRVKLNIVRCPPVTTVLIRRPDLRYQLGFSVQNGIICSLMRGGIAERGGVRVGHRIIEINGQSVVATPHEKIVHILSNAVGEIHMKTMPAAMYRLLTAQEQPVYI | – | – | – | 358
